Kd data for one molecule are collected here from article PMC7736808, “Dual conformational recognition by Z-DNA binding protein is important for the B–Z transition process”.

One data set concerns the target T1, hZαADAR1 (human, UniProt P55265).
T1 sequence: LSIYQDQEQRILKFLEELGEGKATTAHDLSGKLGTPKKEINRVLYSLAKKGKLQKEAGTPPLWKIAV
Description: MST; 20 mM NaCl; text says 1.8 uM; MST at 22 C, 5 nM labeled DNA, 0.5 mg/ml BSA, 0.05% Tween 20; 5 mM HEPES pH 7.5, 20 mM NaCl (Table 2); 20 mM HEPES pH 8.0, 100 mM NaCl (Table 4); 20 mM Tris-HCl pH 7.8, 150 mM KCl (Table 5). As to conditions: protein: recombinant; tags: N-terminal His6, cleaved by thrombin; chain copies: 2; label: 5'-Alexa647 on strand 1; blunt.

In another data set the target is vvZαE3L (UniProt P21605). Put plainly: MST; 20 mM NaCl; text says 20 uM; MST at 22 C, 5 nM labeled DNA, 0.5 mg/ml BSA, 0.05% Tween 20; 5 mM HEPES pH 7.5, 20 mM NaCl (Table 2); 20 mM HEPES pH 8.0, 100 mM NaCl (Table 4); 20 mM Tris-HCl pH 7.8, 150 mM KCl (Table 5). As to conditions: protein: recombinant; label: 5'-Alexa647 on strand 1; blunt.
For data set [1], the target named is T2, GH5*:α3NADAR1-PW (/ human ADAR1 α3N and β-wing residues, UniProt P02259, K41G;S42G;R43G;K53A;R95A;del65;D66K;L67K;Q68E;K70N;L71R;S72V;I73L;R74Y;R75S;S91P …).
T2 sequence: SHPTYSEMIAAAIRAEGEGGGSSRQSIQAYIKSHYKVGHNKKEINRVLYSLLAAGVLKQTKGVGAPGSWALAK
Description: MST; 100 mM NaCl, pH 8.0; MST at 22 C, 5 nM labeled DNA, 0.5 mg/ml BSA, 0.05% Tween 20; 5 mM HEPES pH 7.5, 20 mM NaCl (Table 2); 20 mM HEPES pH 8.0, 100 mM NaCl (Table 4); 20 mM Tris-HCl pH 7.8, 150 mM KCl (Table 5). As to conditions: protein: recombinant; chain copies: 2; label: 5'-Alexa647 on strand 1; blunt.

The target in data set [2] is T2, GH5*:α3NADAR1-PW. Put plainly: MST; 150 mM KCl, pH 7.8; MST at 22 C, 5 nM labeled DNA, 0.5 mg/ml BSA, 0.05% Tween 20; 5 mM HEPES pH 7.5, 20 mM NaCl (Table 2); 20 mM HEPES pH 8.0, 100 mM NaCl (Table 4); 20 mM Tris-HCl pH 7.8, 150 mM KCl (Table 5). As to conditions: protein: recombinant; chain copies: 2; label: 5'-Alexa647 on strand 1; blunt.
The target in the next data set is T3, GH5* (UniProt P02259, K41G;S42G;R43G;K53A;R95A).
T3 sequence: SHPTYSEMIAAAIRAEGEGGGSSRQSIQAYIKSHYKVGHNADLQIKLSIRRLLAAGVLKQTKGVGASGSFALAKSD
The description is as above. As to conditions: protein: recombinant; label: 5'-Alexa647 on strand 1; blunt.

B1: B-DNA 21 bp (dsDNA)
DNA 1: TATGCAATCGTAATAAACCGT
DNA 2: ACGGTTTATTACGATTGCATA
The Kd is the concentration at which binding is half-saturated. As to B1, the Kd with hZαADAR1 was determined as 2.7 ± 0.5 µM; with vvZαE3L it was 21 ± 0.5 µM; with GH5*:α3NADAR1-PW [1] it was 31 ± 2 µM; in the data set with GH5*:α3NADAR1-PW [2] it was 144 ± 16 µM; in the data set with GH5* it was 167 ± 50 µM.
